In patent US20230312713A1:
One block for each substance: values may come before it.

Columns and labels:
[1] = target: mouse CD5 on murine T cells (mouse) (UniProt P13379); assay: cell-based or functional assay
[2] = target: human CD5 on human ACH2 immortalized T cells (human) (UniProt P06127); assay: cell-based or functional assay
Chain of UniProt P06127 (P06127 25-495 limits assumed): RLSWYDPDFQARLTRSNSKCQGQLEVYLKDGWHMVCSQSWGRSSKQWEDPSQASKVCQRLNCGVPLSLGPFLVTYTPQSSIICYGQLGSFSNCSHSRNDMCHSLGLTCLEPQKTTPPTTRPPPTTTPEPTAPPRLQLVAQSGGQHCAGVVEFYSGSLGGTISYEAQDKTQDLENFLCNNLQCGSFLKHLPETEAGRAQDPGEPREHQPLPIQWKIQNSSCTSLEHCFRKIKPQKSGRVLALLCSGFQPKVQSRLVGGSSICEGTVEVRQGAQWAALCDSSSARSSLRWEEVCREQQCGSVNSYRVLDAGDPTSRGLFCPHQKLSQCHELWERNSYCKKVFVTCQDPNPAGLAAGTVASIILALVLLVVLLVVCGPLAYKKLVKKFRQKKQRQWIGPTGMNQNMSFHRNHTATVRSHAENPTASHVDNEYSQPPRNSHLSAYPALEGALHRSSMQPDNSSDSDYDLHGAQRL

Chain of UniProt P13379 (P13379 24-494 limits assumed): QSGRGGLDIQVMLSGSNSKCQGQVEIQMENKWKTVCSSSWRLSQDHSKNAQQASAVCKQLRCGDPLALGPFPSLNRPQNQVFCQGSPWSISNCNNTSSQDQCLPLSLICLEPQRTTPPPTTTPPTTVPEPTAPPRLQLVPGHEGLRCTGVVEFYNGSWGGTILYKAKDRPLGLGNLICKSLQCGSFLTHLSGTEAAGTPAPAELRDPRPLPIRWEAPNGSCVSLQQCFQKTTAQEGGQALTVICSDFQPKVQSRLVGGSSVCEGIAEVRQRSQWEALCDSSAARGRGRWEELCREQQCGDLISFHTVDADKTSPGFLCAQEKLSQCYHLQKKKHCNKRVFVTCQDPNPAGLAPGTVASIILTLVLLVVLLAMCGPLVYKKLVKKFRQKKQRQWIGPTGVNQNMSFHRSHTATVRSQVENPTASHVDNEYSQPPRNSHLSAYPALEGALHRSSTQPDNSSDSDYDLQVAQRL

- percent of murine T cells receiving mRNA in vitro from IgG/LNP (flow cytometry) [1]: 7%
Substance: control isotype matched IgG conjugated to LNP-mRNA (antibody)

- ZsGreen expression in CD4+ splenocytes of Ai6 mice 24 h after 30 ug CD5/LNP-Cre [1]: 81.1%
- ZsGreen expression in CD8+ splenocytes of Ai6 mice 24 h after 30 ug CD5/LNP-Cre [1]: 75.6%
- percent FAPCAR T cells in spleen 48 h after CD5/LNP-FAPCAR injection [1]: 17.5 to 24.7%
- percent of murine T cells expressing FAPCAR after 48 h in vitro with CD5/LNP-FAPCAR (flow cytometry) [1]: 83%
- percent of murine T cells expressing GFP after 48 h in vitro with CD5/LNP-GFP (flow cytometry) [1]: 78%
Substance: purified rat anti-mouse CD5, clone 53-7.3 (BioLegend), conjugated to LNP-mRNA (antibody)

Substance: mouse anti-human CD5, clone UCHT2 (BioLegend), conjugated to LNP-mRNA (antibody)
- percent gene transfer (GFP) in human ACH2 T cells with CD5/LNP-GFP in vitro [2]: 89 to 93%
